Laboratory results taken from patent US20180306788.

Tests used:
[1] = biological target: acetyl-CoA carboxylase 2 (ACC2), wild type
[2] = biological target: T1, synthetic ACC2 peptide containing P450
T1 chain: ERIGFPLMIKASEGGGGK

[3] = biological target: T2, synthetic ACC2 peptide containing P2131
T2 chain: AGQVWFPDSAYKTAQ

[4] = biological target: T3, control ACC2 proline-containing peptide (P966)
T3 chain: ARLELDDPSKVHPAE

Row | Protein | in vitro ACC activity assay ([14C]malonyl-CoA from [14C]bicarbonate, 293T lysates) (ACC2 P450A point mutant) | in vitro ACC activity assay ([14C]malonyl-CoA from [14C]bicarbonate, 293T lysates) [1] | reconstituted in vitro radioactivity-based hydroxylation assay ([14C]CO2 release) [2] | reconstituted in vitro radioactivity-based hydroxylation assay ([14C]CO2 release) [3] | reconstituted in vitro radioactivity-based hydroxylation assay ([14C]CO2 release) [4]
1 | HA-PHD3 (hemagglutinin-tagged prolyl hydroxylase 3, transiently overexpressed in 293T cells) (protein) MPLGHIMRLDLEKIALEYIVPCLHEVGFCYLDNFLGEVVGDCVLERVKQLHCTGALRDGQLAGPRAGVSKRHLRGDQITWIGGNEEGCEAISFLLSLIDRLVLYCGSRLGKYYVKERSKAMVACYPGNGTGYVRHVDNPNGDGRCITCIYYLNKNWDAKLHGGILRIFPEGKSFIADVEPIFDRLLFFWSDRRNPHEVQPSYATRYAMTVWYFDAEERAEAKKKFRNLTRKTESALTED | had no effect on the P450A variant | PHD3 overexpression amplified wild-type ACC2 activity | – | – | –
2 | recombinant PHD3 (in vitro hydroxylation assay) (protein) MPLGHIMRLDLEKIALEYIVPCLHEVGFCYLDNFLGEVVGDCVLERVKQLHCTGALRDGQLAGPRAGVSKRHLRGDQITWIGGNEEGCEAISFLLSLIDRLVLYCGSRLGKYYVKERSKAMVACYPGNGTGYVRHVDNPNGDGRCITCIYYLNKNWDAKLHGGILRIFPEGKSFIADVEPIFDRLLFFWSDRRNPHEVQPSYATRYAMTVWYFDAEERAEAKKKFRNLTRKTESALTED | – | – | recombinant PHD3 was shown to hydroxylate a synthetic ACC2 peptide containing P450 | but not a peptide containing P2131 | but not a peptide containing P2131 or a control ACC2 proline-containing peptide (P966)
